± gives the uncertainty stated by the source.

Data on 35 variants can be found in the Human Domainome abundance scans (Beltran et al. 2025).

First the molecules themselves.
B1: POU domain, class 3, transcription factor 2, residues 262 to 338; numbered along this chain, P20265 (parent)
chain: EDTPTSDDLEQFAKQFKQRRIKLGFTQADVGLALGTLYGNVFSQTTICRFEALQLSFKNMCKLKPLLNKWLEEADSS

The variants in this data set derive from B1. Kind of data set: abundance fitness (aPCA) (normalised: wild type 0, dead -1); higher = more abundant; growth selection in yeast, the domain comes from the species named. The following applies: Homo sapiens.
Consider EDTPTSDDLEQFAKQFKQRRIKLGFTQADVGLALGTLYGNVFSQTTICRFYALQLSFKNMCKLKPLLNKWLEEADSS [E51Y], for which the abundance fitness was -0.999 ± 0.36. The figure for EDTPTSDDLEQFAKQFKQRRIKLGFTQADVGLALGTLYGNVFSQTTICRFNALQLSFKNMCKLKPLLNKWLEEADSS [E51N] is -0.886 ± 0.29; for EDTPTSDDLEQFAKQFKQRRIKLGFTQADVGLALGTLYGNVFSQTTICRFQALQLSFKNMCKLKPLLNKWLEEADSS [E51Q] it is -0.803 ± 0.12. The figure for EDTPTSDDLEQFAKQFKQRRIKLGFTQADVGLALGTLYGNVFSQTTICRFRALQLSFKNMCKLKPLLNKWLEEADSS [E51R] is -0.638 ± 0.049.

EDTPTSDDLEQFAKQFKQRRIKLGFTQADVGLALGTLYGNVFSQTTICRFLALQLSFKNMCKLKPLLNKWLEEADSS [E51L]: the abundance fitness was -1.05 ± 0.14. The figure for EDTPTSDDLEQFAKQFKQRRIKLGFTQADVGLALGTLYGNVFSQTTICRFSALQLSFKNMCKLKPLLNKWLEEADSS [E51S] is -0.88 ± 0.096; for EDTPTSDDLEQFAKQFKQRRIKLGFTQADVGLALGTLYGNVFSQTTICRFMALQLSFKNMCKLKPLLNKWLEEADSS [E51M] it is -1 ± 0.21. For the variant EDTPTSDDLEQFAKQFKQRRIKLGFTQADVGLALGTLYGNVFSQTTICRFPALQLSFKNMCKLKPLLNKWLEEADSS [E51P], the abundance fitness was -0.795 ± 0.11. For the variant EDTPTSDDLEQFAKQFKQRRIKLGFTQADVGLALGTLYGNVFSQTTICRFVALQLSFKNMCKLKPLLNKWLEEADSS [E51V], the abundance fitness was -0.965 ± 0.09. EDTPTSDDLEQFAKQFKQRRIKLGFTQADVGLALGTLYGNVFSQTTICRFEALGLSFKNMCKLKPLLNKWLEEADSS [Q54G]: the abundance fitness is -0.23 ± 0.038. The figure for EDTPTSDDLEQFAKQFKQRRIKLGFTQADVGLALGTLYGNVFSQTTICRFEALWLSFKNMCKLKPLLNKWLEEADSS [Q54W] is -0.436 ± 0.057; for EDTPTSDDLEQFAKQFKQRRIKLGFTQADVGLALGTLYGNVFSQTTICRFEALNLSFKNMCKLKPLLNKWLEEADSS [Q54N] it is -0.113 ± 0.081; for EDTPTSDDLEQFAKQFKQRRIKLGFTQADVGLALGTLYGNVFSQTTICRFEALKLSFKNMCKLKPLLNKWLEEADSS [Q54K] it is 0.045 ± 0.055. Take EDTPTSDDLEQFAKQFKQRRIKLGFTQADVGLALGTLYGNVFSQTTICRFEALLLSFKNMCKLKPLLNKWLEEADSS [Q54L]: the abundance fitness is -0.316 ± 0.049. The figure for EDTPTSDDLEQFAKQFKQRRIKLGFTQADVGLALGTLYGNVFSQTTICRFEALMLSFKNMCKLKPLLNKWLEEADSS [Q54M] is -0.294 ± 0.074; for EDTPTSDDLEQFAKQFKQRRIKLGFTQADVGLALGTLYGNVFSQTTICRFEALRLSFKNMCKLKPLLNKWLEEADSS [Q54R] it is -0.156 ± 0.035; for EDTPTSDDLEQFAKQFKQRRIKLGFTQADVGLALGTLYGNVFSQTTICRFEALVLSFKNMCKLKPLLNKWLEEADSS [Q54V] it is -0.535 ± 0.06.

As for EDTPTSDDLEQFAKQFKQRRIKLGFTQADVGLALGTLYGNVFSQTTICRFEALYLSFKNMCKLKPLLNKWLEEADSS [Q54Y], the abundance fitness is -0.726 ± 0.27. For the variant EDTPTSDDLEQFAKQFKQRRIKLGFTQADVGLALGTLYGNVFSQTTICRFEALSLSFKNMCKLKPLLNKWLEEADSS [Q54S], the abundance fitness was -0.157 ± 0.045.

Consider EDTPTSDDLEQFAKQFKQRRIKLGFTQADVGLALGTLYGNVFSQTTICRFEALHLSFKNMCKLKPLLNKWLEEADSS [Q54H], for which the abundance fitness is -0.2 ± 0.063. The figure for EDTPTSDDLEQFAKQFKQRRIKLGFTQADVGLALGTLYGNVFSQTTICRFEALTLSFKNMCKLKPLLNKWLEEADSS [Q54T] is -0.068 ± 0.054.

With EDTPTSDDLEQFAKQFKQRRIKLGFTQADVGLALGTLYGNVFSQTTICRFEALDLSFKNMCKLKPLLNKWLEEADSS [Q54D], the abundance fitness is -0.035 ± 0.063.

Turning to EDTPTSDDLEQFAKQFKQRRIKLGFTQADVGLALGTLYGNVFSQTTICRFEALELSFKNMCKLKPLLNKWLEEADSS [Q54E], the abundance fitness is -0.03 ± 0.045.

For EDTPTSDDLEQFAKQFKQRRIKLGFTQADVGLALGTLYGNVFSQTTICRFEALFLSFKNMCKLKPLLNKWLEEADSS [Q54F], the abundance fitness is -0.933 ± 0.37. Then EDTPTSDDLEQFAKQFKQRRIKLGFTQADVGLALGTLYGNVFSQTTICRFEAEQLSFKNMCKLKPLLNKWLEEADSS [L53E], with -0.311 ± 0.053; and EDTPTSDDLEQFAKQFKQRRIKLGFTQADVGLALGTLYGNVFSQTTICRFEASQLSFKNMCKLKPLLNKWLEEADSS [L53S], with -0.007 ± 0.038; and EDTPTSDDLEQFAKQFKQRRIKLGFTQADVGLALGTLYGNVFSQTTICRFEATQLSFKNMCKLKPLLNKWLEEADSS [L53T], with -0.138 ± 0.046. In the case of EDTPTSDDLEQFAKQFKQRRIKLGFTQADVGLALGTLYGNVFSQTTICRFEAKQLSFKNMCKLKPLLNKWLEEADSS [L53K], the abundance fitness was -0.06 ± 0.06. Then EDTPTSDDLEQFAKQFKQRRIKLGFTQADVGLALGTLYGNVFSQTTICRFEAQQLSFKNMCKLKPLLNKWLEEADSS [L53Q], with -0.034 ± 0.049; and EDTPTSDDLEQFAKQFKQRRIKLGFTQADVGLALGTLYGNVFSQTTICRFEAYQLSFKNMCKLKPLLNKWLEEADSS [L53Y], with 0.018 ± 0.07.

Regarding EDTPTSDDLEQFAKQFKQRRIKLGFTQADVGLALGTLYGNVFSQTTICRFEAPQLSFKNMCKLKPLLNKWLEEADSS [L53P], the abundance fitness was -0.961 ± 0.28.

Take EDTPTSDDLEQFAKQFKQRRIKLGFTQADVGLALGTLYGNVFSQTTICRFEAVQLSFKNMCKLKPLLNKWLEEADSS [L53V]: the abundance fitness is -0.009 ± 0.031.

EDTPTSDDLEQFAKQFKQRRIKLGFTQADVGLALGTLYGNVFSQTTICRFEADQLSFKNMCKLKPLLNKWLEEADSS [L53D]: the abundance fitness was -0.411 ± 0.068. Take EDTPTSDDLEQFAKQFKQRRIKLGFTQADVGLALGTLYGNVFSQTTICRFEAMQLSFKNMCKLKPLLNKWLEEADSS [L53M]: the abundance fitness is 0.017 ± 0.042. The figure for EDTPTSDDLEQFAKQFKQRRIKLGFTQADVGLALGTLYGNVFSQTTICRFEAHQLSFKNMCKLKPLLNKWLEEADSS [L53H] is -0.017 ± 0.069.
